In article PMC11514443 (Structure (London, England : 1993), 2019):

Molecular target: MORC3-CW E431A mutant (human) (UniProt Q14149)
Experiment: other fluorescence titration

Chain of MORC3-CW E431A mutant (human) (Q14149 401-455 E431A): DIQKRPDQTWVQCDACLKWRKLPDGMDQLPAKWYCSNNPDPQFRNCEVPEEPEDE

NS1 peptide trimethylated at K229 (residues 222-230 of NS1)
Kd: 57 µM
